Test results: publication PMC10300371, “Categorization of Escherichia coli outer membrane proteins by dependence on accessory proteins of the β-barrel assembly machinery complex” (The Journal of Biological Chemistry, 2023)

B1: OmpC (natural protein, E. coli, UniProt P06996 22-367, looked up)
chain: AEVYNKDGNKLDLYGKVDGLHYFSDNKDVDGDQTYMRLGFKGETQVTDQLTGYGQWEYQIQGNSAENENNSWTRVAFAGLKFQDVGSFDYGRNYGVVYDVTSWTDVLPEFGGDTYGSDNFMQQRGNGFATYRNTDFFGLVDGLNFAVQYQGKNGNPSGEGFTSGVTNNGRDALRQNGDGVGGSITYDYEGFGIGGAISSSKRTDAQNTAAYIGNGDRAETYTGGLKYDANNIYLAAQYTQTYNATRVGSLGWANKAQNFEAVAQYQFDFGLRPSLAYLQSKGKNLGRGYDDEDILKYVDVGATYYFNKNMSTYVDYKINLLDDNQFTRDAGINTDNIVALGLVYQF
modifications: 35S-methionine and 35S-cysteine (radiolabel)
notes: Made as a monomer and seen as a trimer after assembly into EMM; also called 35S-labeled OmpC; major porin; source: in vitro translated, rabbit reticulocyte lysate (Promega), 35S-labelled; assembled into EMM
B2: OmpF (natural protein, E. coli, UniProt P02931 23-362, looked up)
chain: AEIYNKDGNKVDLYGKAVGLHYFSKGNGENSYGGNGDMTYARLGFKGETQINSDLTGYGQWEYNFQGNNSEGADAQTGNKTRLAFAGLKYADVGSFDYGRNYGVVYDALGYTDMLPEFGGDTAYSDDFFVGRVGGVATYRNSNFFGLVDGLNFAVQYLGKNERDTARRSNGDGVGGSISYEYEGFGIVGAYGAADRTNLQEAQPLGNGKKAEQWATGLKYDANNIYLAANYGETRNATPITNKFTNTSGFANKTQDVLLVAQYQFDFGLRPSIAYTKSKAKDVEGIGDVDLVNYFEVGATYYFNKNMSTYVDYIINQIDSDNKLGVGSDDTVAVGIVYQF
modifications: 35S-methionine and 35S-cysteine (radiolabel)
notes: Made as a monomer and seen as a trimer after assembly into EMM; also called 35S-labeled OmpF; major porin; source: in vitro translated, rabbit reticulocyte lysate (Promega), 35S-labelled; assembled into EMM
B3: LamB (natural protein, E. coli, UniProt P02943 26-446, looked up)
chain: VDFHGYARSGIGWTGSGGEQQCFQTTGAQSKYRLGNECETYAELKLGQEVWKEGDKSFYFDTNVAYSVAQQNDWEATDPAFREANVQGKNLIEWLPGSTIWAGKRFYQRHDVHMIDFYYWDISGPGAGLENIDVGFGKLSLAATRSSEAGGSSSFASNNIYDYTNETANDVFDVRLAQMEINPGGTLELGVDYGRANLRDNYRLVDGASKDGWLFTAEHTQSVLKGFNKFVVQYATDSMTSQGKGLSQGSGVAFDNEKFAYNINNNGHMLRILDHGAISMGDNWDMMYVGMYQDINWDNDNGTKWWTVGIRPMYKWTPIMSTVMEIGYDNVESQRTGDKNNQYKITLAQQWQAGDSIWSRPAIRVFATYAKWDEKWGYDYTGNADNNANFGKAVPADFNGGSFGRGDSDEWTFGAQMEIWW
modifications: 35S-methionine and 35S-cysteine (radiolabel)
notes: Made as a monomer and seen as a trimer after assembly into EMM; also called 35S-labeled LamB; maltoporin; source: in vitro translated, rabbit reticulocyte lysate (Promega), 35S-labelled; assembled into EMM

Biological target: the molecule itself
Test: native gel or EMSA; 35S-labelled protein incubated with EMM at 30 °C for 10 to 90 min, EMM solubilised in 1.5% DDM, BN-PAGE and radioimaging; monomer to trimer

Stoichiometry N, 3:
B1
B2
B3
